The term Kd denotes the equilibrium constant for the complex coming apart.

Consider four molecules from PMC4840014, “The G-quadruplex-forming aptamer AS1411 potently inhibits HIV-1 attachment to the host cell”.

Series [1] deals with nucleolin (NCL) (human (human recombinant protein), UniProt P19338 1-710). Briefly: SPR; HEPES-KCl; SPR (Biacore T100, CM5 chip), HEPES-KCl buffer (composition, pH and temperature not given), oligos 15.6-1000 nM, heated 95 C 5 min and cooled to room temperature, 20 uL/min, 120 s contact and dissociation, 1 M KCl regeneration. (In general: SPR reads the build-up and loss of mass on a sensor chip optically.)
nucleolin (NCL), sequence (P19338 whole entry): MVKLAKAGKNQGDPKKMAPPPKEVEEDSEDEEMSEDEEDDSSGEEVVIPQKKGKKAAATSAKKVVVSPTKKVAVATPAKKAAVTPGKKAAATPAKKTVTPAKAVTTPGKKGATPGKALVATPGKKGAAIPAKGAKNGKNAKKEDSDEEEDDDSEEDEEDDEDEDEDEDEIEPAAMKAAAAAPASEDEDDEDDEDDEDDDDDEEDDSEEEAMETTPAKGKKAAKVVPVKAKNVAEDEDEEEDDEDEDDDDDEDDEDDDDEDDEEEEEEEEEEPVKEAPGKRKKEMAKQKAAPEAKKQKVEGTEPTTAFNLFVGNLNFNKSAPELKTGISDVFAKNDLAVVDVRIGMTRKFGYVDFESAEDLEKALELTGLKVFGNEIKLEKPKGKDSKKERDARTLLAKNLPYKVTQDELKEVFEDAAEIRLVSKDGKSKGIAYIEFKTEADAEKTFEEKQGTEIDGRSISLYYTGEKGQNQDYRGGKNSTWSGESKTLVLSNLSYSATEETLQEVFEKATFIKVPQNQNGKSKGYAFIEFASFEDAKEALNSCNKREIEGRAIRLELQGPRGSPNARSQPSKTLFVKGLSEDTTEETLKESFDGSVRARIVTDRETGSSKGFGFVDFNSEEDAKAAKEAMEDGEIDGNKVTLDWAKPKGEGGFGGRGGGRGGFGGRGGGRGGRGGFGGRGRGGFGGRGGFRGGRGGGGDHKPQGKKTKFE

Series [2] addresses gp120 envelope glycoprotein (HIV-1 IIIB, UniProt P04578 33-511). Briefly: SPR; HEPES-KCl; up to 1000 nM; SPR (Biacore T100, CM5 chip), HEPES-KCl buffer (composition, pH and temperature not given), oligos 15.6-1000 nM, heated 95 C 5 min and cooled to room temperature, 20 uL/min, 120 s contact and dissociation, 1 M KCl regeneration. Conditions: protein: recombinant.

B1: AS1411 (structured_DNA)
DNA: GGTGGTGGTGGTTGTGGTGGTGGTGG
Turning to B1, in series [1] (G4, described as dimeric), the equilibrium dissociation constant (Kd) was determined as 34.2 nM.

B2: CRO26 (ssDNA)
DNA: CCTCCTCCTCCTTCTCCTCCTCCTCC
In the case of B2, the binding result in series [2] (C-rich, negative control) is reported as “no binding”.

B3: SCRA (ssDNA)
DNA: TTTTTGGAGCGTGTGTGCGCGAGAGCGTGCGCGTGGCGAGCGTGGAGTGGTTTTT
As for B3, the binding result in series [2] (G-rich, non-G4) is on record as “no binding”.

B4: LTR-III (structured_DNA)
DNA: GGGAGGCGTGGCCTGGGCGGGACTGGGG
Take B4: in series [1] (G4), the Kd came out at 76.3 nM.
